Measurements published in the supplement of paper PMC10126150.
± gives the standard deviation of the averaged measurements.

System: ATP
Experiment: switch fluorescence ratio, 500 uM ATP over buffer (Cy3 cluster intensity, sum of 5 cycles each) (fold (ratio)); higher = stronger signal-on switching upon ATP binding; sequences stand for … in TCGTCGGCAGCGTCAGATGTGTATAAGAGACAGTTTTTTTTTTTTTTTTTTTTTTTTT…TC
Settings: aptamer strand: ATP DNA aptamer (quencher-CACCTGGGGGAGTATTGCGGAGGAAGG + anchor), 100 nM annealed; ATP concentration: 500 uM
Procedure, shortened: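 Values give the fluorescence ratio for each switch-domain sequence, averaged from per-cluster ratios of summed target-cycle to summed buffer-cycle Cy3 intensity. The Cy3-labelled switching-strand clusters sat on a modified Illumina MiSeq flow-cell, were annealed to 100 nM quencher-labelled ATP aptamer, and were imaged in selection buffer, then after 15 min with 500 uM ATP at 22 °C. Five cycles ran with NaOH stripping and re-annealing between them, and clusters outside 100-1000 RFU were excluded.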
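Note: ATP exposure 15 min at 22 °C before imaging.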

Row | Sequence | switch fluorescence ratio
1 | GGCTTTTTTG | 0.9954 ± 0.0081
2 | GGGAAAAGGG | 0.998 ± 0.035
3 | GGGAAAATGT | 1.02 ± 0.038
4 | GGGAAACCGG | 1.06 ± 0.018
5 | GGGAAACTAA | 1.01 ± 0.031
6 | GGGAAAGCG | 1.04 ± 0.036
7 | GGGAAAGGTT | 1.01 ± 0.026
8 | GGGAAATAGC | 1.06 ± 0.036
9 | GGGAAATTGC | 1.04 ± 0.074
10 | GGGAAGAACT | 1.06 ± 0.014
11 | GGGAAGGGAG | 0.983 ± 0.028
12 | GGGAAGGGGA | 1.04 ± 0.12
13 | GGGAAGGGGG | 1 ± 0.034
14 | GGGAAGTGTG | 0.979 ± 0.024
15 | GGGAAGTTGG | 0.986 ± 0.013
16 | GGGAATACAT | 1.01 ± 0.028
17 | GGGAATCAAG | 0.9862 ± 0.0097
18 | GGGAATCGGT | 0.978 ± 0.058
19 | GGGAATCTGC | 1.01 ± 0.026
20 | GGGAATGGAT | 1.01 ± 0.029
21 | GGGAATGGGG | 0.992 ± 0.044
22 | GGGAATGGTG | 1.035 ± 0.0095
23 | GGGAATGTT | 0.992 ± 0.022
24 | GGGAATGTTC | 1.01 ± 0.014
25 | GGGAATTACC | 0.986 ± 0.024

Row | Sequence | switch fluorescence ratio
26 | GGGAATTCGA | 1 ± 0.036
27 | GGGACAATGA | 1 ± 0.038
28 | GGGACAGGGA | 1.05 ± 0.066
29 | GGGACAGTGG | 1 ± 0.015
30 | GGGACATTTT | 1.026 ± 0.0086
31 | GGGACCGAAC | 1.13 ± 0.029
32 | GGGACCGACT | 1.05 ± 0.016
33 | GGGACCGTGC | 1.07 ± 0.096
34 | GGGACCGTGT | 1.01 ± 0.028
35 | GGGACGGAAC | 1.12 ± 0.03
36 | GGGACGGGGA | 0.978 ± 0.026
37 | GGGACTCGTG | 1.04 ± 0.053
38 | GGGACTGGGT | 0.999 ± 0.012
39 | GGGACTTTCT | 1.01 ± 0.0092
40 | GGGAGAAAGG | 1.011 ± 0.0067
41 | GGGAGAACGA | 0.984 ± 0.015
42 | GGGAGAAGGA | 1.05 ± 0.085
43 | GGGAGAAGGT | 0.967 ± 0.011
44 | GGGAGAGCGT | 0.966 ± 0.018
45 | GGGAGAGGGT | 1.02 ± 0.016
46 | GGGAGAGTGG | 0.9868 ± 0.0015
47 | GGGAGATATG | 0.9788 ± 0.0095
48 | GGGAGATTAA | 0.975 ± 0.013
49 | GGGAGATTTT | 1.01 ± 0.035
50 | GGGAGCATCG | 0.9709 ± 0.0055

Row | Sequence | switch fluorescence ratio
51 | GGGAGCGCTT | 1.03 ± 0.012
52 | GGGAGGAGAC | 1.02 ± 0.053
53 | GGGAGGCAGA | 0.989 ± 0.065
54 | GGGAGGGAAA | 1.04 ± 0.056
55 | GGGAGGGGG | 0.965 ± 0.045
56 | GGGAGGGTTT | 0.98 ± 0.022
57 | GGGAGGTAGG | 0.991 ± 0.01
58 | GGGAGGTGGG | 1.009 ± 0.0014
59 | GGGAGTAAAG | 0.989 ± 0.013
60 | GGGAGTAAGG | 1.024 ± 0.0025
61 | GGGAGTCAGC | 1.012 ± 0.008
62 | GGGAGTCTTC | 1.04 ± 0.1
63 | GGGAGTGGCA | 1.08 ± 0.15
64 | GGGAGTTAAA | 0.972 ± 0.013
65 | GGGAGTTGG | 0.992 ± 0.017
66 | GGGAGTTGGG | 1.02 ± 0.044
67 | GGGATAACAG | 1.04 ± 0.011
68 | GGGATAAGCC | 1 ± 0.012
69 | GGGATAAGTT | 0.983 ± 0.035
70 | GGGATAGATA | 1.03 ± 0.022
71 | GGGATAGGAA | 0.993 ± 0.03
72 | GGGATAGGCC | 1.02 ± 0.032
73 | GGGATAGGGG | 0.996 ± 0.024
74 | GGGATAGTGC | 1.01 ± 0.021
75 | GGGATATCAG | 0.994 ± 0.017

Row | Sequence | switch fluorescence ratio
76 | GGGATATCAT | 0.9903 ± 0.0048
77 | GGGATCAAGA | 0.998 ± 0.023
78 | GGGATCAGTA | 0.9602 ± 0.0055
79 | GGGATCGTTT | 0.982 ± 0.046
80 | GGGATGAACG | 1.04 ± 0.021
81 | GGGATGGCAT | 0.995 ± 0.034
82 | GGGATGGCCT | 0.959 ± 0.011
83 | GGGATGTGCG | 1.04 ± 0.027
84 | GGGATTAAGG | 0.999 ± 0.021
85 | GGGATTCCGT | 1.05 ± 0.042
86 | GGGATTGCGG | 1.12 ± 0.23
87 | GGGATTGGGT | 1.01 ± 0.021
88 | GGGATTTATA | 0.995 ± 0.019
89 | GGGATTTGGT | 1.02 ± 0.02
90 | GGGATTTTGC | 0.952 ± 0.015
91 | GGGCAAGGTC | 1.03 ± 0.034
92 | GGGCAAGGTG | 1.21 ± 0.12
93 | GGGCAATATG | 1.17 ± 0.06
94 | GGGCACATCC | 1.02 ± 0.025
95 | GGGCACCAGG | 1.21 ± 0.03
96 | GGGCAGCCTT | 0.99337 ± 0.0002
97 | GGGCAGGGGA | 1.17 ± 0.35
98 | GGGCAGTAGG | 1 ± 0.025
99 | GGGCAGTTCG | 1.02 ± 0.027
100 | GGGCATGAAG | 1.016 ± 0.0066
